# Source: the supplement of paper PMC9170038
# System: MS2 coat protein
# Assay: apparent KD of MS2 coat protein; designed switch direction (-1 OFF switch, 1 ON switch): -1; higher = weaker reporter binding
# Summary of the method: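 Designed RNA switches with common flanks were made on Illumina chips by stalled E. coli RNA polymerase. Titration with SNAP-549-labelled MS2 coat protein doubled from 0.7 or 1.5 nM up to 3 µM. Apparent KD is each design's median over clusters after curve-fitting normalised fluorescence.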
# [1] = Eterna round: R95, input ligand: microRNA oligo, concentration not stated
# [2] = input ligand: microRNA oligo, concentration not stated
# [3] = Eterna round: R95, input ligand: FMN 200 uM
# [4] = Eterna round: R95, input ligand: none
Sequence,apparent KD of MS2 coat protein (input ligand: FMN 200 uM) [µM],apparent KD of MS2 coat protein (input ligand: none) [µM],apparent KD of MS2 coat protein [1] [µM],also measured
"AGAUCACAUGAGGAUCACCCAUGUCAGGAUAUCGUCACUGGAGCUUCGGCUCCAGUGACGAGAAGGGAUAAUUA [E1/4-A1] (Eterna round: R97, puzzle: Exclusion 1)",0.124,0.055,–,–
AGAUCACAUGAGGAUCACCCAUGUCAGGAUAUGAUACUAUGUACUUCGGUACAUAGUAUCAGAAGGGACUUAAA [Ex1-3: 70] (puzzle: Exclusion 1),–,–,0.101,–
AGAUCACAUGAGGAUCACCCAUGUCAGGAUAUGAUACUAUGUACUUCGGUACAUAGUAUCAGAAGGGAUAUGAA [Ex1-3: 67] (puzzle: Exclusion 1),–,–,0.109,–
AGAUCCUGAGUCAGGAUAUAGAGACGGUAGUCGGGCUAGAAGGGACAUGAGGAUCACCCAUGUGGGUUCGGGCC [Zarareso] (puzzle: Brourd's mod of Exclusion 4),–,–,0.0128,–
"AGAUCGAGUGUGAGGAUAUUGACCGGACGACCCAUCGAGAAGGCACAUGAGGAUCACCCAUGUGAUUCGGUUCA [Brourd's EX4 #57] (Eterna round: R97, puzzle: Brourd's mod of Exclusion 4)",0.0271,0.0154,–,–
"AGAUCGUCAGGAUAUACAUGAGGAUCACCCAUGUAUUGUCUAAAUUUGACUAUACGAUGUAGAAGGGACGAUCG [Exclusion 3 (MOD7 of #1 Marzena11)] (Eterna round: R97, puzzle: Exclusion 3)",0.0417,0.0162,–,–
"AGAUCUAGGACAGGAUAUAUGGAUGUCUUCAUCGAAGAUGAAGACAUCACAUGAGGAUCACCCAUGUAGAAGGGUCCUAGAUCA [Omei Exc(NG) 2Av2] (Eterna round: R96, puzzle: Exclusion NG 2)",0.0119,0.0156,–,apparent KD of MS2 coat protein [2]: 0.0135 µM
"AGAUGCUCAAGUCGACAUGAGGAUCACCCAUGUACAGUUAAUGAGGAUAUCUGAGAUAAAUAAUAGGAGAAGGCGUGAACAUGA [Ex NG3 #9] (Eterna round: R96, puzzle: Exclusion NG 3)",0.0259,0.0349,–,apparent KD of MS2 coat protein [2]: 0.0203 µM
"AGAUGCUCGAGUCAACAUGAGGAUCACCCAUGUACAGUUAAUGAGGAUAUCUGAGACAAAUAGUAGGAGAAGGCGUGAACAUGA [Ex NG3 #12] (Eterna round: R96, puzzle: Exclusion NG 3)",0.0321,0.0396,–,apparent KD of MS2 coat protein [2]: 0.069 µM
"AGAUGCUCGAGUCGACAUGAGGAUCACCCAUGUACAGUUAGUGAGGAUAUCUGAGACACAUAGUAGGAGAAGGCGCGAACAUGA [Ex NG3 #13] (Eterna round: R96, puzzle: Exclusion NG 3)",0.132,0.06,–,apparent KD of MS2 coat protein [2]: 0.0434 µM
AGAUGGCGAGGAUAUACAUGAGGAUCACCCAUGUGAAGAUAUAAAGUGAGGAAGAAAAGUAGAAGGCGCUGUCA [Mat - Exclusion 3 - Mod of Salish D25] (puzzle: Exclusion 3),–,–,0.0488,apparent KD of MS2 coat protein [3]: 0.225 µM; apparent KD of MS2 coat protein [4]: 0.0637 µM
AGAUGGCGAGGAUAUACAUGAGGAUCACCCAUGUGAGAGAAAAGAGUGAGGAAGAAAAGUAGAAGGCGCUGUCA [Mat - Exclusion 3 - Mod of Salish D17] (puzzle: Exclusion 3),–,–,0.071,–
AGAUGGCGAGGAUAUACAUGAGGAUCACCCAUGUGAGAUAAAAUAGUGAGGAAGAAAAGUAGAAGGCGCUGUCA [Mat - Exclusion 3 - Mod of Salish D15] (puzzle: Exclusion 3),–,–,0.0581,apparent KD of MS2 coat protein [3]: 0.268 µM; apparent KD of MS2 coat protein [4]: 0.073 µM
"AGAUUAAAUGAGGAUAUCGUAUUGGAUAUAGUGCGAGAAGGCAUGACAUGAGGAUCACCCAUGUAGUGUUGGGA [JR_Ex6_Sub009] (Eterna round: R97, puzzle: Exclusion 6)",0.0915,0.0434,–,–
"AGCACUAUCACGAAAGUGAUAGUGCAAUAAGCAAGUGAAACAUGAGGAUCACCCAUGUCCUCAAUUGCUCGUCUUAU [Mat - Sensor v2 -ver2- JL mod - D81] (Eterna round: R96, puzzle: Sensor v2, turn-off variant 2)",0.0493,0.0512,–,apparent KD of MS2 coat protein [2]: 0.807 µM
"AGCAGACGAGGAUAUAAAUGAUAUAACAUGAGGAUCACCCAUGUACGAUCGAAUGAUCGUUUAGAAGGCGUCUGCU [E5/11-A1] (Eterna round: R97, puzzle: Exclusion 5)",0.0165,0.0163,–,–

Sequence,apparent KD of MS2 coat protein (input ligand: FMN 200 uM) [µM],apparent KD of MS2 coat protein (input ligand: none) [µM],apparent KD of MS2 coat protein [1] [µM],also measured
"AGCAGACGAGGAUAUGAUCAAUAAUACAUGAGGAUCACCCAUGUAAUACUGAUCCAUGGAUCAGAAGGCGUCUGCU [E5/5-A1] (Eterna round: R97, puzzle: Exclusion 5)",0.0235,0.0164,–,–
AGCAUGCUAGGAUAUACGAAACAUUAGGGUUCGUCGUAUGAACAUGAGGAUCACCCAUGUAGAAGGAGCGUGCA [Mat - Exclusion 2 - Mod of Hyphema - D95] (puzzle: Exclusion 2),–,–,0.0179,–
AGCAUGUAAGGAUAUGCAACACGACGUUCAAUCGUCGUGCCGCAGAAGGUACAUGAGGAUCACCCAUGUGCUCC [Xesodied] (puzzle: Exclusion 4),–,–,0.0754,–
AGCAUGUAAGGAUAUGUAACGCGGCGUUCAUUCGUCGUCCCACAGAAGGUACAUGAGGAUCACCCAUGUGCUCC [Veorla] (puzzle: Exclusion 4),–,–,0.039,–
"AGCCAAGCAGGAUAUAUCCGGGAUAACAUGAGGAUCACCCAUGUGACCGAUUGAUGUCCUAUAGAAGGGCUUGGGA [Mod of ViennaUCT 22 - Jieux - Exclusion 5] (Eterna round: R97, puzzle: Exclusion 5)",0.176,0.0435,–,–
"AGCCAAGCAGGAUAUGCCCGGGAUAACAUGAGGAUCACCCAUGUGACCGAUUGAUGUCCUGCAGAAGGGCUUGGGA [Erxesoan] (Eterna round: R96, puzzle: Exclusion 5)",0.0824,0.0169,–,apparent KD of MS2 coat protein [2]: 0.0114 µM
AGCCAAGCAGGAUAUGCCCGGGAUAACAUGAGGAUCACCCAUGUGACCGAUUGAUGUCCUGCAGAAGGGCUUGGGA [Erxesoan] (puzzle: Exclusion 5),–,–,0.0158,–
"AGCCAAGCAGGAUAUGCCCGGGAUAACAUGAGGAUCACCCAUGUGACCGAUUGAUGUCCUGCAGAAGGGCUUGGGA [Mod of ViennaUCT - Jieux - Exclusion 5] (Eterna round: R97, puzzle: Exclusion 5)",0.0832,0.0179,–,–
"AGCCAUCGUGUGAGGAUAUCGAUAAGUUCGAGUUUCGAGAAGGCACAUGAGGAUCACCCAUGUCGUGAAAGAAA [BmEX4 A.28] (Eterna round: R97, puzzle: Brourd's mod of Exclusion 4)",0.0758,0.244,–,–
"AGCCCGCAAGGAGGAUAUUAACAUGAGGAUCACCCAUGUAAUCACUAGAUAGCACGGGCGGUUCGUAAGAAGGUCUAGUGGAAU [Eternabot solution 24] (Eterna round: R96, puzzle: Exclusion NG 2)",0.0354,0.0331,–,apparent KD of MS2 coat protein [2]: 0.0223 µM
AGCCCUAAUGUCAGGAUAUGCAUCCUUAAUGGACGGCAGAAGGGACAUGAGGAUCACCCAUGUAAAUAGAAAUU [Direised] (puzzle: Brourd's mod of Exclusion 4),–,–,0.0314,–
"AGCCCUGCAGGAUAUGCCCGGGAUAACAUGAGGAUCACCCAUGUGACUGAUUGUUAUCCUGCAGAAGGGCAUGGGA [JL-EX5-4.13 ViennaUCT mod] (Eterna round: R97, puzzle: Exclusion 5)",0.547,1,–,–
"AGCCUAGCAGGAUAUGCCCGGGAUAACAUGAGGAUCACCCAUGUGACUGAUUGAUGUCUUGCAGAAGGGCUAGGGA [JL-EX5-4.03 ViennaUCT mod] (Eterna round: R97, puzzle: Exclusion 5)",0.211,0.0261,–,–
"AGCCUCUAAGGAUAUACAUGAGGAUCACCCAUGUACUUAGAAGGGAAACCUUCUAUAUGUAGAAGGUAGAAGCA [Exclusion 3 S1] (Eterna round: R97, puzzle: Exclusion 3)",0.016,0.0127,–,–
"AGCGAAUGAGGAUAUUAUCUCACCUACAUGAGGAUCACCCAUGUGGUCGCACCUGGCGAGUGAGAAGGCAUUCGGA [Eternabot (Original) Solution 41] (Eterna round: R97, puzzle: Exclusion 5)",0.112,0.0498,–,–
"AGCGAGGCAGGAUAUACAUGAGGAUCACCCAUGUACUUGUAUGGCGUGGAACAUCGUGGUAGAAGGGCCGUGCC [EX3 #80] (Eterna round: R97, puzzle: Exclusion 3)",0.0927,0.0689,–,–
